For this assay, the target named is T1, CRF1R receptor (anti-target) (UniProt P34998 24-415, limits assumed).
T1 sequence (looked up): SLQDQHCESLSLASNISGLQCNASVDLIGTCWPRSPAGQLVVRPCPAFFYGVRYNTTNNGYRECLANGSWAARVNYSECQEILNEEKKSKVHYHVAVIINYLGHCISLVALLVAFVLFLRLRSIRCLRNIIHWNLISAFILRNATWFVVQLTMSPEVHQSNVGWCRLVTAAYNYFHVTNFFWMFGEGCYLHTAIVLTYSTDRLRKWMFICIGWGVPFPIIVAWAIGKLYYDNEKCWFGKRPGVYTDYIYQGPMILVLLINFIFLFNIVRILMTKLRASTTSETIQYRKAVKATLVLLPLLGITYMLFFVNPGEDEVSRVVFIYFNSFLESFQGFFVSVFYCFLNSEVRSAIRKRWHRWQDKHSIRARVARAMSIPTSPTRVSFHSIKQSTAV
The assay is described as follows: cell-based or functional assay.

Starred links: 1 amine or outer side, 2 acyl side, 3 side chain; linkers in the order of their positions; H or OH if unused. Non-standard residues stand in square brackets, D forms with d. Groups on a side chain read outwards from the residue. No end group written: not given here. *: point of attachment. C18 diacid = O=C(O)CCCCCCCCCCCCCCCCC(=O)*; γGlu = O=C(O)[C@H](CCC(=O)[*:2])N[*:1]; AEEA = NCCOCCOCC(=O)O; Aib = CC(C)(N)C(=O)O

B1: peptide of SEQ ID NO: 102 (peptide)
peptide: IVLSLD[dV]PIKLK([AEEA-AEEA-γGlu-C18 diacid])QILLKQERQKKQREQAETNKQILAQV-NH2
modifications: N-terminus assumed
SMILES: CC[C@H](C)[C@H](N)C(=O)N[C@H](C(=O)N[C@@H](CC(C)C)C(=O)N[C@@H](CO)C(=O)N[C@@H](CC(C)C)C(=O)N[C@@H](CC(=O)O)C(=O)N[C@@H](C(=O)N1CCC[C@H]1C(=O)N[C@H](C(=O)N[C@@H](CCCCN)C(=O)N[C@@H](CC(C)C)C(=O)N[C@@H](CCCCNC(=O)COCCOCCNC(=O)COCCOCCNC(=O)CC[C@H](NC(=O)CCCCCCCCCCCCCCCCC(=O)O)C(=O)O)C(=O)N[C@@H](CCC(N)=O)C(=O)N[C@H](C(=O)N[C@@H](CC(C)C)C(=O)N[C@@H](CC(C)C)C(=O)N[C@@H](CCCCN)C(=O)N[C@@H](CCC(N)=O)C(=O)N[C@@H](CCC(=O)O)C(=O)N[C@@H](CCCNC(=N)N)C(=O)N[C@@H](CCC(N)=O)C(=O)N[C@@H](CCCCN)C(=O)N[C@@H](CCCCN)C(=O)N[C@@H](CCC(N)=O)C(=O)N[C@@H](CCCNC(=N)N)C(=O)N[C@@H](CCC(=O)O)C(=O)N[C@@H](CCC(N)=O)C(=O)N[C@@H](C)C(=O)N[C@@H](CCC(=O)O)C(=O)N[C@H](C(=O)N[C@@H](CC(N)=O)C(=O)N[C@@H](CCCCN)C(=O)N[C@@H](CCC(N)=O)C(=O)N[C@H](C(=O)N[C@@H](CC(C)C)C(=O)N[C@@H](C)C(=O)N[C@@H](CCC(N)=O)C(=O)N[C@H](C(N)=O)C(C)C)[C@@H](C)CC)[C@@H](C)O)[C@@H](C)CC)[C@@H](C)CC)C(C)C)C(C)C
For B1, the “EC50 [nM] 0% HSA (cAMP, HTRF)” value is over 100 nM and the “Emax (%) (100% = Sauvagine at 100 nM)” value was 9%.

B2: peptide of SEQ ID NO: 103 (peptide)
peptide: IVLSLDVPIKLK([AEEA-AEEA-γGlu-C18 diacid])QILLEQERQK[Aib]QREQAETNKQILAQV-NH2
modifications: N-terminus assumed
SMILES: CC[C@H](C)[C@H](N)C(=O)N[C@H](C(=O)N[C@@H](CC(C)C)C(=O)N[C@@H](CO)C(=O)N[C@@H](CC(C)C)C(=O)N[C@@H](CC(=O)O)C(=O)N[C@H](C(=O)N1CCC[C@H]1C(=O)N[C@H](C(=O)N[C@@H](CCCCN)C(=O)N[C@@H](CC(C)C)C(=O)N[C@@H](CCCCNC(=O)COCCOCCNC(=O)COCCOCCNC(=O)CC[C@H](NC(=O)CCCCCCCCCCCCCCCCC(=O)O)C(=O)O)C(=O)N[C@@H](CCC(N)=O)C(=O)N[C@H](C(=O)N[C@@H](CC(C)C)C(=O)N[C@@H](CC(C)C)C(=O)N[C@@H](CCC(=O)O)C(=O)N[C@@H](CCC(N)=O)C(=O)N[C@@H](CCC(=O)O)C(=O)N[C@@H](CCCNC(=N)N)C(=O)N[C@@H](CCC(N)=O)C(=O)N[C@@H](CCCCN)C(=O)NC(C)(C)C(=O)N[C@@H](CCC(N)=O)C(=O)N[C@@H](CCCNC(=N)N)C(=O)N[C@@H](CCC(=O)O)C(=O)N[C@@H](CCC(N)=O)C(=O)N[C@@H](C)C(=O)N[C@@H](CCC(=O)O)C(=O)N[C@H](C(=O)N[C@@H](CC(N)=O)C(=O)N[C@@H](CCCCN)C(=O)N[C@@H](CCC(N)=O)C(=O)N[C@H](C(=O)N[C@@H](CC(C)C)C(=O)N[C@@H](C)C(=O)N[C@@H](CCC(N)=O)C(=O)N[C@H](C(N)=O)C(C)C)[C@@H](C)CC)[C@@H](C)O)[C@@H](C)CC)[C@@H](C)CC)C(C)C)C(C)C
Turning to B2, the “EC50 [nM] 0% HSA (cAMP, HTRF)” value is over 100 nM and the “Emax (%) (100% = Sauvagine at 100 nM)” value is 14%.

B3: peptide of SEQ ID NO: 105 (peptide)
peptide: IVLSLDVPIKLK([AEEA-AEEA-γGlu-C18 diacid])QILLEQERQK[Aib]QRQQAETNKQILAQV-NH2
modifications: N-terminus assumed
SMILES: CC[C@H](C)[C@H](N)C(=O)N[C@H](C(=O)N[C@@H](CC(C)C)C(=O)N[C@@H](CO)C(=O)N[C@@H](CC(C)C)C(=O)N[C@@H](CC(=O)O)C(=O)N[C@H](C(=O)N1CCC[C@H]1C(=O)N[C@H](C(=O)N[C@@H](CCCCN)C(=O)N[C@@H](CC(C)C)C(=O)N[C@@H](CCCCNC(=O)COCCOCCNC(=O)COCCOCCNC(=O)CC[C@H](NC(=O)CCCCCCCCCCCCCCCCC(=O)O)C(=O)O)C(=O)N[C@@H](CCC(N)=O)C(=O)N[C@H](C(=O)N[C@@H](CC(C)C)C(=O)N[C@@H](CC(C)C)C(=O)N[C@@H](CCC(=O)O)C(=O)N[C@@H](CCC(N)=O)C(=O)N[C@@H](CCC(=O)O)C(=O)N[C@@H](CCCNC(=N)N)C(=O)N[C@@H](CCC(N)=O)C(=O)N[C@@H](CCCCN)C(=O)NC(C)(C)C(=O)N[C@@H](CCC(N)=O)C(=O)N[C@@H](CCCNC(=N)N)C(=O)N[C@@H](CCC(N)=O)C(=O)N[C@@H](CCC(N)=O)C(=O)N[C@@H](C)C(=O)N[C@@H](CCC(=O)O)C(=O)N[C@H](C(=O)N[C@@H](CC(N)=O)C(=O)N[C@@H](CCCCN)C(=O)N[C@@H](CCC(N)=O)C(=O)N[C@H](C(=O)N[C@@H](CC(C)C)C(=O)N[C@@H](C)C(=O)N[C@@H](CCC(N)=O)C(=O)N[C@H](C(N)=O)C(C)C)[C@@H](C)CC)[C@@H](C)O)[C@@H](C)CC)[C@@H](C)CC)C(C)C)C(C)C
Turning to B3, the “EC50 [nM] 0% HSA (cAMP, HTRF)” value was over 100 nM and the “Emax (%) (100% = Sauvagine at 100 nM)” value was 15.4%.

B4: peptide of SEQ ID NO: 104 (peptide)
peptide: IVLSLDVPIKLK([AEEA-AEEA-γGlu-C18 diacid])QILLKQERQK[Aib]QREQAETNKQILAQV-NH2
modifications: N-terminus assumed
SMILES: CC[C@H](C)[C@H](N)C(=O)N[C@H](C(=O)N[C@@H](CC(C)C)C(=O)N[C@@H](CO)C(=O)N[C@@H](CC(C)C)C(=O)N[C@@H](CC(=O)O)C(=O)N[C@H](C(=O)N1CCC[C@H]1C(=O)N[C@H](C(=O)N[C@@H](CCCCN)C(=O)N[C@@H](CC(C)C)C(=O)N[C@@H](CCCCNC(=O)COCCOCCNC(=O)COCCOCCNC(=O)CC[C@H](NC(=O)CCCCCCCCCCCCCCCCC(=O)O)C(=O)O)C(=O)N[C@@H](CCC(N)=O)C(=O)N[C@H](C(=O)N[C@@H](CC(C)C)C(=O)N[C@@H](CC(C)C)C(=O)N[C@@H](CCCCN)C(=O)N[C@@H](CCC(N)=O)C(=O)N[C@@H](CCC(=O)O)C(=O)N[C@@H](CCCNC(=N)N)C(=O)N[C@@H](CCC(N)=O)C(=O)N[C@@H](CCCCN)C(=O)NC(C)(C)C(=O)N[C@@H](CCC(N)=O)C(=O)N[C@@H](CCCNC(=N)N)C(=O)N[C@@H](CCC(=O)O)C(=O)N[C@@H](CCC(N)=O)C(=O)N[C@@H](C)C(=O)N[C@@H](CCC(=O)O)C(=O)N[C@H](C(=O)N[C@@H](CC(N)=O)C(=O)N[C@@H](CCCCN)C(=O)N[C@@H](CCC(N)=O)C(=O)N[C@H](C(=O)N[C@@H](CC(C)C)C(=O)N[C@@H](C)C(=O)N[C@@H](CCC(N)=O)C(=O)N[C@H](C(N)=O)C(C)C)[C@@H](C)CC)[C@@H](C)O)[C@@H](C)CC)[C@@H](C)CC)C(C)C)C(C)C
As to B4, the “EC50 [nM] 0% HSA (cAMP, HTRF)” value is over 100 nM and the “Emax (%) (100% = Sauvagine at 100 nM)” value stood at 3.7%.

B5: peptide of SEQ ID NO: 96 (peptide)
peptide: IVLSLDVPIKLK([AEEA-AEEA-γGlu-C18 diacid])QILLKQERQKKEREQAETNKQILAQV-NH2
modifications: N-terminus assumed
SMILES: CC[C@H](C)[C@H](N)C(=O)N[C@H](C(=O)N[C@@H](CC(C)C)C(=O)N[C@@H](CO)C(=O)N[C@@H](CC(C)C)C(=O)N[C@@H](CC(=O)O)C(=O)N[C@H](C(=O)N1CCC[C@H]1C(=O)N[C@H](C(=O)N[C@@H](CCCCN)C(=O)N[C@@H](CC(C)C)C(=O)N[C@@H](CCCCNC(=O)COCCOCCNC(=O)COCCOCCNC(=O)CC[C@H](NC(=O)CCCCCCCCCCCCCCCCC(=O)O)C(=O)O)C(=O)N[C@@H](CCC(N)=O)C(=O)N[C@H](C(=O)N[C@@H](CC(C)C)C(=O)N[C@@H](CC(C)C)C(=O)N[C@@H](CCCCN)C(=O)N[C@@H](CCC(N)=O)C(=O)N[C@@H](CCC(=O)O)C(=O)N[C@@H](CCCNC(=N)N)C(=O)N[C@@H](CCC(N)=O)C(=O)N[C@@H](CCCCN)C(=O)N[C@@H](CCCCN)C(=O)N[C@@H](CCC(=O)O)C(=O)N[C@@H](CCCNC(=N)N)C(=O)N[C@@H](CCC(=O)O)C(=O)N[C@@H](CCC(N)=O)C(=O)N[C@@H](C)C(=O)N[C@@H](CCC(=O)O)C(=O)N[C@H](C(=O)N[C@@H](CC(N)=O)C(=O)N[C@@H](CCCCN)C(=O)N[C@@H](CCC(N)=O)C(=O)N[C@H](C(=O)N[C@@H](CC(C)C)C(=O)N[C@@H](C)C(=O)N[C@@H](CCC(N)=O)C(=O)N[C@H](C(N)=O)C(C)C)[C@@H](C)CC)[C@@H](C)O)[C@@H](C)CC)[C@@H](C)CC)C(C)C)C(C)C
For the molecule B5, the “EC50 [nM] 0% HSA (cAMP, HTRF)” value was over 100 nM and the “Emax (%) (100% = Sauvagine at 100 nM)” value came out at 2.3%.

(Values after patent US12679878B2, “CRF2 receptor agonists and their use in therapy” (SANOFI, priority 2020, dated 2026).)
